Laboratory results from patent US20220389113A1, “BINDING PROTEINS TO CUB DOMAIN-CONTAINING PROTEIN (CDCP1)” (COMMONWEALTH SCIENTIFIC AND INDUSTRIAL RESEARCH ORGANISATION, priority 2019, published 2022).

Experiments:
[1] = molecular target: human CUB domain-containing protein 1 (CDCP1), expressed by cells (human) (UniProt Q9H5V8); assay: flow cytometry of TKCC05 cells, 5 µg/ml antibody, APC-conjugated anti-mouse secondary; number in the IgG column (paragraph 330 calls the numbers of the 10D7 column MFI)
[2] = molecular target: human CUB domain-containing protein 1 (CDCP1), expressed by cells (human) (UniProt Q9H5V8); assay: flow cytometry of PANC-1 cells, 5 µg/ml antibody, APC-conjugated anti-mouse secondary; number in the IgG column (paragraph 330 calls the numbers of the 10D7 column MFI)
[3] = molecular target: human CUB domain-containing protein 1 (CDCP1), expressed by cells (human) (UniProt Q9H5V8); assay: flow cytometry of TKCC10 cells, 5 µg/ml antibody, APC-conjugated anti-mouse secondary; number in the IgG column (paragraph 330 calls the numbers of the 10D7 column MFI)
[4] = molecular target: human CUB domain-containing protein 1 (CDCP1), expressed by cells (human) (UniProt Q9H5V8); assay: flow cytometry of TKCC02 cells, 5 µg/ml antibody, APC-conjugated anti-mouse secondary; number in the IgG column (paragraph 330 calls the numbers of the 10D7 column MFI)
CDCP1^GFP in HEY cells = assay: Live-cell spinning-disk confocal microscopy of HEY-CDCP1^GFP cells; type: cell-based; details: dasatinib 200 nM pre-treatment
Description: Live-cell spinning-disk confocal imaging was performed as described (Stehbens S J, et al., (2014) 16(6):561-73.) on an environmentally controlled Nikon TI inverted microscope (Nikon, New York) equipped with a Borealis-modified Yokogawa CSU-X1 confocal head (Spectral Applied Research, Ontario Canada) and a Clara cooled interline charge-coupled device (CCD) camera (Andor Technology, Belfast, United Kingdom). Dynamics of fluorescent proteins were imaged at 37° C. using a 60×1.49 NA objective (Nikon) with imaging of CDCP1^GFP internalization induced by 10D7^pH performed at ˜1 frame/sec. Image analysis and quantification was performed using Imaris 7.1 software (Bitplane, Zurich, Switzerland) (Morton J P, et al., (2010) 139(1):292-303.). Briefly, the Spots creation wizard automatically subtracted background and detected CDCP1^GFP puncta which were filtered for analysis based on threshold values above 20 for ‘quality’ defined as the intensity at the centre of the puncta, Gaussian filtered by […] (Doyon J B, et al., (2011)13(3):331-7.). Puncta were tracked over sequential frames using the Autoregressive motion particle-tracking algorithm. […] Quantification of track length during the period 0-5 min was determined from the 100 tracks with the highest velocity in each experimental group. […]

[5] = molecular target: T1, human CUB domain-containing protein 1 (CDCP1), expressed by cells (human, UniProt Q9H5V8 30-836); assay: summary of co-IP, SEC and reducing/non-reducing Western blots
T1 construct: also called CDCP1-FL; CD318
T1 sequence: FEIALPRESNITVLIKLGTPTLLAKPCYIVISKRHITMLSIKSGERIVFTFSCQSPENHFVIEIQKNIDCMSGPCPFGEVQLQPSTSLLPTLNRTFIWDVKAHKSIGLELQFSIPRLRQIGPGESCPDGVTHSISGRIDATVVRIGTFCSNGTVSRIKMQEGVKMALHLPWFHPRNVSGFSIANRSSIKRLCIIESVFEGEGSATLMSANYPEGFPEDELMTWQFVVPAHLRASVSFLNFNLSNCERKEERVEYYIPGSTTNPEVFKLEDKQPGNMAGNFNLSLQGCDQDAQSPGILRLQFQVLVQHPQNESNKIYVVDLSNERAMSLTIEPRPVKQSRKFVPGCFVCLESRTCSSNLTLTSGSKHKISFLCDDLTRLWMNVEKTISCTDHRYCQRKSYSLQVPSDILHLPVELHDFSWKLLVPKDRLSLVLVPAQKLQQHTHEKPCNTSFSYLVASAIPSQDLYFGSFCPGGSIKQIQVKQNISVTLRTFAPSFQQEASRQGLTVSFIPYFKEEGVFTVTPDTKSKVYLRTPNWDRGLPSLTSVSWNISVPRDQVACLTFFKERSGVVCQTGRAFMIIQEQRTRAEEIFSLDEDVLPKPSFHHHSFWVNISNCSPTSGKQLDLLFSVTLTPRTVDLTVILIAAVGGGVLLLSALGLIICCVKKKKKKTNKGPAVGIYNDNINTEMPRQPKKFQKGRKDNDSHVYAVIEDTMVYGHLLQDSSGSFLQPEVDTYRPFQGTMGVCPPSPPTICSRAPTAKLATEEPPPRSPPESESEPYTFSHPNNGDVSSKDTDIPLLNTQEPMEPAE

[6] = molecular target: T2, recombinant CDCP1-ECD, spanning residue 30 to 665 (human, UniProt Q9H5V8 30-665); assay: SPR, Biacore T200, antibody captured via Protein G on CM5 chip, CDCP1-ECD analyte 50 to 1.56 nM, 25 C
T2 construct: Recombinant protein described in Chen Y et al. 2017; also called CDCP1 extracellular domain (ECD)
T2 sequence: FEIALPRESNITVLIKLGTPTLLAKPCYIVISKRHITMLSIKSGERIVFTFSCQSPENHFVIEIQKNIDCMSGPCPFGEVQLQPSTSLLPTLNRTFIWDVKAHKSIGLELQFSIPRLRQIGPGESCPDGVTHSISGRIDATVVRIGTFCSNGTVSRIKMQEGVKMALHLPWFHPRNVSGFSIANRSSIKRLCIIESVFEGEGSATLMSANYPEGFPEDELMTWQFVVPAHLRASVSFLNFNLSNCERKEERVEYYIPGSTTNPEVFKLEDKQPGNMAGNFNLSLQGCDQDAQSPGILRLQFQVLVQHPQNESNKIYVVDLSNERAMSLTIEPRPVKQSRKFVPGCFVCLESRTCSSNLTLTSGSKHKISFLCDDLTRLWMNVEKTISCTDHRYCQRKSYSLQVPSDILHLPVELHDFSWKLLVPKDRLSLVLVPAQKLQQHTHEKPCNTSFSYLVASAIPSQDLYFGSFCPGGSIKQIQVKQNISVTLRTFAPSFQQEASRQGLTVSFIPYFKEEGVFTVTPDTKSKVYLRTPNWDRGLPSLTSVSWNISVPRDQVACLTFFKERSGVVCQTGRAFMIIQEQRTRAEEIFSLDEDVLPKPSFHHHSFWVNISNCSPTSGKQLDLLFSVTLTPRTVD

[7] = molecular target: T2, recombinant CDCP1-ECD, spanning residue …; assay: SPR (Biacore T200), antibody captured via Protein G on a CM5 chip, CDCP1-ECD 1.56 to 50 nM as analyte, 25 °C
[8] = molecular target: T2, recombinant CDCP1-ECD, spanning residue …; assay: SPR, Biacore T200, antibody captured via Protein G, CDCP1-ECD analyte; reference 41-2
TKCC05 cells = assay: Confocal microscopy of TKCC05 cells treated with 10D7-Qdot; type: cell-based, human
Description: Labelling of antibody 10D7 with fluorescent Qdot 625 probes was performed using a kit supplied by the manufacturer. TKCC05 cells were grown on poly-Lysine treated […] chamber slides (DKSH, Hallam, Australia) until 70% confluent then incubated with 10D7-Qdot. After 5, 10 and 120 min cells were fixed with 4% paraformaldehyde for 15 min at room temperature (RT), washed with PBS, then incubated with DAPI to highlight cell nuclei and Alexa Fluor 488 phalloidin to highlight cell cytoplasms (30 min at RT). Imaging was performed on a Nikon/Spectral Spinning Disc Confocal microscope.
To assess the impact of antibody 10D7 on CDCP1 expressed by PDAC, the inventors performed confocal microscopy and western blot analysis of patient-derived PDAC cells treated with this antibody for defined periods of time. […] Western blot analysis confirmed that 10D7 induces rapid transient tyrosine phosphorylation of CDCP1-ATF in TKCC05 cells and CDCP1-FL in TKCC10 cells, while Src was also transiently tyrosine phosphorylated in these cells in response to 10D7 (FIG. 11B). […] The data are consistent with CDCP1-ATF remaining tethered to the plasma membrane likely via CDCP1-CTF and indicate that intact and cleaved CDCP1 can be functionally targeted with antibody 10D7 in PDAC cells. Thus, antibody 10D7 is effective at targeting uncleaved as well as cleaved CDCP1 that are present on the surface of cancer cells.

## IgG (antibody)
[1]
  MFI: 234
[2]
  MFI: 202
[3]
  MFI: 133
[4]
  MFI: 216

## Cc1nc(Nc2ncc(C(=O)Nc3c(C)cccc3Cl)s2)cc(N2CCN(CCO)CC2)n1 [dasatinib]
CDCP1^GFP in HEY cells
  reduction of CDCP1^GFP track length in response to 10D7: about 80%

B1: CDCP1 amino-terminal fragment (CDCP1-ATF), 65 kDa (receptor)
chain: FEIALPRESNITVLIKLGTPTLLAKPCYIVISKRHITMLSIKSGERIVFTFSCQSPENHFVIEIQKNIDCMSGPCPFGEVQLQPSTSLLPTLNRTFIWDVKAHKSIGLELQFSIPRLRQIGPGESCPDGVTHSISGRIDATVVRIGTFCSNGTVSRIKMQEGVKMALHLPWFHPRNVSGFSIANRSSIKRLCIIESVFEGEGSATLMSANYPEGFPEDELMTWQFVVPAHLRASVSFLNFNLSNCERKEERVEYYIPGSTTNPEVFKLEDKQPGNMAGNFNLSLQGCDQDAQSPGILRLQFQVLVQHPQNESNKIYVVDLSNERAMSLTIEPRPVKQSR
notes: Product of proteolytic cleavage of CDCP1
[5]
  binding result: binds

B2: anti-CDCP1 mouse monoclonal antibody 10D7 (antibody, V domains shown)
VH: EVQLQQFGAELVKPGASVKISCKASGYSFSDFNIEWLKQSHGKSLEWIGDINPNYDSTNYNQKFKGRATLTVDKSSSTAYMEVRSLTSEDTAVYYCARLGYGYAMDYWGQGTSVTVSS
VL: NIVMTQSPQSMSMSVGERVTLSCKASENVGAYVSWFQQKPDQSPKLLILAASNRYTGVPARFIGSGSATDFTLTISSVQAEDLADYHCGQSYTYPYTFGGGTKLEIKR
notes: also called mAb 10D7; mouse 10D7 antibody
[6]
  Kd: 0.44 nM
[7]
  koff: 0.000441 s⁻¹
  kon: 1e+06 M⁻¹ s⁻¹
[8]
  fold stronger KD than 41-2: 2.7 fold

B3: 10D7-Qdot (conjugate)
VH: B2 VH
VL: NIVMTQSPQSMSMSVGERVTLSCKASENVGAYVSWFQQKPDQSPKLLILAASNRYTGVPARFIGSGSATDFTLTISSVQAEDLADYHCGQSYTYPYTFGGGTKLEIKRADAAPTVS
TKCC05 cells
  time until apparent on the plasma membrane: ≤ 5 min
TKCC05 cells; after 120 min
  internalization of antibody: largely internalized
